Measurements reported in article PMC12820186.

T1: CsEIN3 DNA-binding domain (CsEIN3-BD) (cucumber, UniProt A0A0A0LXB4 1-412)
T1 sequence: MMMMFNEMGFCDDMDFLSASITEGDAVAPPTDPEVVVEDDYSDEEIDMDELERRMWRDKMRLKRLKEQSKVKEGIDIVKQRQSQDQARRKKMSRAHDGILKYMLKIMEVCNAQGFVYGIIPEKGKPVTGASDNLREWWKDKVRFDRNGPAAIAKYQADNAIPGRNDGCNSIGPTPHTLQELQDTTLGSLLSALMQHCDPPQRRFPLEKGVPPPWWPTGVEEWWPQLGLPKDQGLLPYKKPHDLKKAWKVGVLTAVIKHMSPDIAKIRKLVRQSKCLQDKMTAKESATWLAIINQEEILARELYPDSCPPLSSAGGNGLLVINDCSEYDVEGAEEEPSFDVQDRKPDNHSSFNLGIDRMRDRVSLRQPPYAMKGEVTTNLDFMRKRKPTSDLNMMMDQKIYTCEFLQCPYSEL

B1: proCsCYP707A4 p4 probe (dsDNA)
DNA 1: GCGAACGTCGTGTGAAGTACTTCATGGAGACGAATA
DNA 2: TATTCGTCTCCATGAAGTACTTCACACGACGTTCGC
B2: proCsCYP707A4 p3 probe (dsDNA)
DNA 1: TTGCCAACTAATTTCATGTTCAATCAATGAAAGTGA
DNA 2: TCACTTTCATTGATTGAACATGAAATTAGTTGGCAA
B3: proCsCYP707A4 p2 probe (dsDNA)
DNA 1: CGTCGTGTGAAGTACTTCATGGAGACGAATAAAAG
DNA 2: CTTTTATTCGTCTCCATGAAGTACTTCACACGACG

molecular target: T1, CsEIN3 DNA-binding domain (CsEIN3-BD); test: EMSA

Binding result, no binding:
B1
B2
B3
